Measurements: patent US11607390B2, “Self-righting systems and related components and methods” (priority 2017, dated 2023)

Tested on: Micrococcus lysodelkticus cells
Test: Lysozyme enzyme activity assay
Assay type: biochemical
Settings: micropost tips 80% lysozyme, 20% PEO 200k vs uncompressed
Protocol: […] assays were performed on the dissolved solution.
To measure the activity of lysozyme, the assay provided by Sigma Aldrich was used which measures the amount of lysed Micrococcus lysodelkticus cells. Briefly, a 200 unit/mL Lysozyme solution in 50 mM Potassium Phosphate Buffer was added to a 0.015% [w/v] Micrococcus lysodeiklicus cell suspension in the same buffer. The decrease was recorded in A450 over 5 minutes. Nine micropost tips were fabricated from 80% lysozyme and 20% PEO 200k and dissolved sets of three micropost tips together. Triplicate assays were performed on each dissolved solution for a total of nine tests and the results were compared to the results of a solution made with lysozyme that was not compressed into a micropost tip.

For lysozyme, the “enzymatic activity after the manufacturing process” value was “maintain their activity”.
